Sequences and labels used below:
B1: CPEB3 Ribozyme (parent)
chain: UAACAGGGGGCCACAGCAGAAGCGUUCACGUCGCAGCCCCUGUCAGAUUCUGGUGAAUCUGCGAAUUCUGCUGUAUAUCUC

Our source for the self-cleavage values is the RNAGym collection of RNA variant scans (doi:10.1093/nar/gkz1192).

The data set covers variants of B1. Briefly: self-cleavage, relative activity (ratio to wild type); higher = more cleavage; in vitro, sequencing. In short, it runs like this: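 Relative activity compares each variant's cleaved/total read fraction with that of the unmutated ribozyme. To get these fractions, barcoded CPEB3 ribozyme libraries from rounds of error-prone PCR were transcribed with T7 RNA polymerase for 5 hours at 37°C and then given 15 min of DNase I treatment before EDTA was added. The RNAs were reverse transcribed with template switching and sequenced on Illumina, and DNA sequencing linked barcodes to variants. A minimum of 5 reads applied, and three batches were averaged.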
Regarding CAACAGGGGGCCACAGCAGAAGCGUUCACGUAGCAGCCCCUGUCAGAUUCUGGUGAAUCUGCGAAUUCUGCUGUAUAUCUC [U1C C32A], the self-cleavage was found to be 0.26.
Regarding CAACACGGGGCCACAGCAGAAGCGUUCACGUCGCAGCCCCUGUCAGAUUCUGGUGAAUCUGCGAAUUCUGCUGUAUAUCUC [U1C G6C], the self-cleavage came to 0.56.
As for CAACAAGGGGCCACAGCAGAAGCGUUCACGUCGCAGCCCCUGUCAGAUUCUGGUGAAUCUGCGAAUUCUGCUGUAUAUCUC [U1C G6A], the self-cleavage is 0.3.
The value for CAACAGGGGGCCACAACAGAAGCGUUCACGUCGCAGCCCCUGUCAGAUUCUGGUGAAUCUGCGAAUUCUGCUGUAUAUCUC [U1C G16A] was 0.08.
The value for CAACAGGGGGCCACAGCAGAAGCGUUCACGUCGCAGCACCUGUCAGAUUCUGGUGAAUCUGCGAAUUCUGCUGUAUAUCUC [U1C C38A] was 0.18; that for CAACAGAGGGCCACAGCAGAAGCGUUCACGUCGCAGCCCCUGUCAGAUUCUGGUGAAUCUGCGAAUUCUGCUGUAUAUCUC [U1C G7A] was 0.09.
For CAACAGCGGGCCACAGCAGAAGCGUUCACGUCGCAGCCCCUGUCAGAUUCUGGUGAAUCUGCGAAUUCUGCUGUAUAUCUC [U1C G7C], the self-cleavage is 0.44.
The value for CAACAGGGGGCCACAGCAGAAGCGUUCACGUCGCAGUCCCUGUCAGAUUCUGGUGAAUCUGCGAAUUCUGCUGUAUAUCUC [U1C C37U] was 0.37; that for CAACAGGGGGCCACAGCAGAAGCGUUCACGUCGCAGACCCUGUCAGAUUCUGGUGAAUCUGCGAAUUCUGCUGUAUAUCUC [U1C C37A] was 0.16; that for CAACAGGGGGCCACAGCAGAAGCGUUCACGUCGCAGCCCCUGUCAGAUUCUGGUGAAUCUGUGAAUUCUGCUGUAUAUCUC [U1C C62U] was 0.32.
Turning to CAACAGGGGGCCACAGCAGAAGCGUUCACGUCGAAGCCCCUGUCAGAUUCUGGUGAAUCUGCGAAUUCUGCUGUAUAUCUC [U1C C34A], the self-cleavage stood at 0.12.
CAACAGGGGGCCACAGCAGAAGCGUUCACGUCGUAGCCCCUGUCAGAUUCUGGUGAAUCUGCGAAUUCUGCUGUAUAUCUC [U1C C34U]: the self-cleavage was determined as 0.24.
CAACAGGGGACCACAGCAGAAGCGUUCACGUCGCAGCCCCUGUCAGAUUCUGGUGAAUCUGCGAAUUCUGCUGUAUAUCUC [U1C G10A]: the self-cleavage is 0.23.
Regarding CAACAGGGGCCCACAGCAGAAGCGUUCACGUCGCAGCCCCUGUCAGAUUCUGGUGAAUCUGCGAAUUCUGCUGUAUAUCUC [U1C G10C], the self-cleavage amounted to 0.17.
The value for CAACAGGGGGCCACAGCAGAAGCGUUCACGUCGCAGCCCCUGUCAGAUUCUGGUGAAUCUGCGAAUUAUGCUGUAUAUCUC [U1C C68A] was 0.37; that for CAACAGGGGGCCACAGCAGAAGCGUUCACGUCGCAGCCCCUGUCAGAUUCUGGUGAAUCUGCGAAUUGUGCUGUAUAUCUC [U1C C68G] was 0.25; that for CAACAGGGCGCCACAGCAGAAGCGUUCACGUCGCAGCCCCUGUCAGAUUCUGGUGAAUCUGCGAAUUCUGCUGUAUAUCUC [U1C G9C] was 0.39.
CAACAGGGAGCCACAGCAGAAGCGUUCACGUCGCAGCCCCUGUCAGAUUCUGGUGAAUCUGCGAAUUCUGCUGUAUAUCUC [U1C G9A]: the self-cleavage worked out at 0.43.
On to CAACAGGGGGCCACAGCAGAAGCGUUCACGUCGCAGCCCCUGUCAGAUUCUGGUGAAUCUGCGAAUUCUGUUGUAUAUCUC [U1C C71U], for which the self-cleavage turned out to be 0.54.
The value for CAACAGGUGGCCACAGCAGAAGCGUUCACGUCGCAGCCCCUGUCAGAUUCUGGUGAAUCUGCGAAUUCUGCUGUAUAUCUC [U1C G8U] was 0.39; that for CAACAGGAGGCCACAGCAGAAGCGUUCACGUCGCAGCCCCUGUCAGAUUCUGGUGAAUCUGCGAAUUCUGCUGUAUAUCUC [U1C G8A] was 0.34; that for CAACAGGGGGCCACAGCAGAAGUGUUCACGUCGCAGCCCCUGUCAGAUUCUGGUGAAUCUGCGAAUUCUGCUGUAUAUCUC [U1C C23U] was 0.47.
The value for CAACAGGGGGCCACAGCAGAAGGGUUCACGUCGCAGCCCCUGUCAGAUUCUGGUGAAUCUGCGAAUUCUGCUGUAUAUCUC [U1C C23G] was 0.42; that for CAACAGGGGGCCACAGCAGAAGCGUUCAUGUCGCAGCCCCUGUCAGAUUCUGGUGAAUCUGCGAAUUCUGCUGUAUAUCUC [U1C C29U] was 0.33; that for CAACAGGGGGCCACAGCAGAAGCGUUCAAGUCGCAGCCCCUGUCAGAUUCUGGUGAAUCUGCGAAUUCUGCUGUAUAUCUC [U1C C29A] was 0.32.
On to CAACAGGGGGCCACAGCAGAAGCGUUCACGUCGCAGCCCCUGUCAGAUUCUGGUGAAUCUGCGAAUUCUGCUGUAUAUUUC [U1C C79U], for which the self-cleavage turned out to be 0.8.
The value for CAACAGGGGGCCACAGCAGAAGCGUUCACGUCGCAGCCCCUGUCAGAUUCUGGUGAAUCUGCGAAUUCUGCUGUAUAUAUC [U1C C79A] was 1.03; that for CAACAGGGGGCCACAGCAGAAGCGUUCACGUCGCAGCCCUUGUCAGAUUCUGGUGAAUCUGCGAAUUCUGCUGUAUAUCUC [U1C C40U] was 0.3.
For CAACAGGGGGCCACAGCAGAAGCGUUCACGUCGCAGCCCAUGUCAGAUUCUGGUGAAUCUGCGAAUUCUGCUGUAUAUCUC [U1C C40A], the self-cleavage stood at 0.18.
Regarding CAACAGGGGGCCACAGCAGAAGCGUUUACGUCGCAGCCCCUGUCAGAUUCUGGUGAAUCUGCGAAUUCUGCUGUAUAUCUC [U1C C27U], the self-cleavage was found to be 0.38.
As to CAACAGGGGGCCACAGCAGAAGCGUUCACGUCGCAGCCCCUGUCAGAUUCUGGUGAAUCUGCGAAUUCUGCUGUAUAUCUG [U1C C81G], the self-cleavage was determined as 1.21.
As for CAACAGGGGGCCACAGCAAAAGCGUUCACGUCGCAGCCCCUGUCAGAUUCUGGUGAAUCUGCGAAUUCUGCUGUAUAUCUC [U1C G19A], the self-cleavage was found to be 0.32.
The value for CAACAGGGGGCCACAGCAUAAGCGUUCACGUCGCAGCCCCUGUCAGAUUCUGGUGAAUCUGCGAAUUCUGCUGUAUAUCUC [U1C G19U] was 0.4; that for CAACAGGGGGCCACAGCAGAAGCGUUCACGUCGCAGCCCCUGUCAGAUUAUGGUGAAUCUGCGAAUUCUGCUGUAUAUCUC [U1C C50A] was 0.61.
